Data published in the supplement of paper PMC9112550, “Optimization of the antimicrobial peptide Bac7 by deep mutational scanning” (BMC Biology, 2022).

Test system: Escherichia coli TOP10
Assay: shrunken log2 fold change of peptide-encoding DNA abundance (4.5 h post-induction vs induction); higher = less antimicrobial activity (less host growth inhibition)
Settings: time post-induction: 4.5 h; library: site-saturation at positions 5, 18, 19, 20
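Further: peptides expressed intracellularly from a pBAD plasmid library in pooled LB shake-flask culture, induced with 0.3% L-arabinose, DNA abundance read by NGS, three biological replicates, DESeq2 with apeglm shrinkage.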

| Sequence | shrunken log2 fold change |
| --- | --- |
| RRIRERPPRLPRPRPRPHHDPRP | -0.578 |
| RRIRERPPRLPRPRPRPHKVPRP | -0.361 |
| RRIRERPPRLPRPRPRPHLGPRP | -0.0405 |
| RRIRERPPRLPRPRPRPHLIPRP | -0.207 |
| RRIRERPPRLPRPRPRPHMGPRP | -0.00822 |
| RRIRERPPRLPRPRPRPHMHPRP | -0.687 |
| RRIRERPPRLPRPRPRPHMLPRP | -0.376 |
| RRIRERPPRLPRPRPRPHMNPRP | -0.337 |
| RRIRERPPRLPRPRPRPHNAPRP | -0.192 |
| RRIRERPPRLPRPRPRPHNRPRP | -0.0587 |
| RRIRERPPRLPRPRPRPHNYPRP | -0.612 |
| RRIRERPPRLPRPRPRPHPHPRP | -0.167 |
| RRIRERPPRLPRPRPRPHPLPRP | -0.0971 |
| RRIRERPPRLPRPRPRPHQDPRP | -0.0312 |
| RRIRERPPRLPRPRPRPHQGPRP | 0.0963 |
| RRIRERPPRLPRPRPRPHQHPRP | -0.449 |
| RRIRERPPRLPRPRPRPHQKPRP | -0.0694 |
| RRIRERPPRLPRPRPRPHQPPRP | 0.202 |
| RRIRERPPRLPRPRPRPHQSPRP | -0.0234 |
| RRIRERPPRLPRPRPRPHQWPRP | -0.199 |
| RRIRERPPRLPRPRPRPHWAPRP | 0.225 |
| RRIRERPPRLPRPRPRPHWYPRP | -1.19 |
| RRIRERPPRLPRPRPRPHYDPRP | -0.963 |
| RRIRERPPRLPRPRPRPHYTPRP | -0.615 |
| RRIRERPPRLPRPRPRPHYYPRP | -0.83 |

| Sequence | shrunken log2 fold change |
| --- | --- |
| RRIRERPPRLPRPRPRPICTPRP | -0.249 |
| RRIRERPPRLPRPRPRPIDDPRP | 0.0583 |
| RRIRERPPRLPRPRPRPIDFPRP | 0.136 |
| RRIRERPPRLPRPRPRPIDGPRP | 0.0442 |
| RRIRERPPRLPRPRPRPIENPRP | 0.0371 |
| RRIRERPPRLPRPRPRPIFAPRP | 0.21 |
| RRIRERPPRLPRPRPRPIFFPRP | 0.0602 |
| RRIRERPPRLPRPRPRPIGNPRP | -0.134 |
| RRIRERPPRLPRPRPRPIGQPRP | 0.000367 |
| RRIRERPPRLPRPRPRPIIQPRP | -0.386 |
| RRIRERPPRLPRPRPRPIIYPRP | -0.412 |
| RRIRERPPRLPRPRPRPIKFPRP | -0.0529 |
| RRIRERPPRLPRPRPRPIKHPRP | -0.967 |
| RRIRERPPRLPRPRPRPIKIPRP | -0.681 |
| RRIRERPPRLPRPRPRPIKKPRP | 0.00021 |
| RRIRERPPRLPRPRPRPILWPRP | -0.161 |
| RRIRERPPRLPRPRPRPIMHPRP | -0.462 |
| RRIRERPPRLPRPRPRPIMTPRP | -0.714 |
| RRIRERPPRLPRPRPRPINCPRP | -0.00179 |
| RRIRERPPRLPRPRPRPIRRPRP | -0.17 |
| RRIRERPPRLPRPRPRPISIPRP | -0.258 |
| RRIRERPPRLPRPRPRPITDPRP | -0.00102 |
| RRIRERPPRLPRPRPRPIVFPRP | 0.0592 |
| RRIRERPPRLPRPRPRPIYFPRP | -0.378 |
| RRIRERPPRLPRPRPRPIYHPRP | -0.626 |

| Sequence | shrunken log2 fold change |
| --- | --- |
| RRIRERPPRLPRPRPRPIYNPRP | -0.85 |
| RRIRERPPRLPRPRPRPKAMPRP | 0.282 |
| RRIRERPPRLPRPRPRPKAPPRP | 0.124 |
| RRIRERPPRLPRPRPRPKASPRP | 0.0444 |
| RRIRERPPRLPRPRPRPKCPPRP | 0.0136 |
| RRIRERPPRLPRPRPRPKFPPRP | 0.0509 |
| RRIRERPPRLPRPRPRPKGAPRP | 0.216 |
| RRIRERPPRLPRPRPRPKIFPRP | 0.0686 |
| RRIRERPPRLPRPRPRPKKAPRP | -0.0599 |
| RRIRERPPRLPRPRPRPKKDPRP | -0.346 |
| RRIRERPPRLPRPRPRPKKVPRP | -0.178 |
| RRIRERPPRLPRPRPRPKLCPRP | 0.000831 |
| RRIRERPPRLPRPRPRPKMHPRP | -0.134 |
| RRIRERPPRLPRPRPRPKMLPRP | -0.0332 |
| RRIRERPPRLPRPRPRPKMTPRP | -0.0406 |
| RRIRERPPRLPRPRPRPKNDPRP | -0.467 |
| RRIRERPPRLPRPRPRPKNLPRP | 0.072 |
| RRIRERPPRLPRPRPRPKNVPRP | 0.0204 |
| RRIRERPPRLPRPRPRPKNWPRP | 1.59 |
| RRIRERPPRLPRPRPRPKPVPRP | 0.173 |
| RRIRERPPRLPRPRPRPKRMPRP | -0.0497 |
| RRIRERPPRLPRPRPRPKRRPRP | 0.143 |
| RRIRERPPRLPRPRPRPKRVPRP | -0.0417 |
| RRIRERPPRLPRPRPRPKSQPRP | -0.0879 |
| RRIRERPPRLPRPRPRPKTIPRP | -0.232 |
